One molecule from article PMC4362353 can be followed below.

For the test, the target named is recombinant adeno-associated virus-6 vector particle (rAAV6 capsid) (adeno-associated virus 6). Description: co-sedimentation.

B1: secreted human Galectin 3-binding protein from HEK293 culture medium (natural protein)
chain: VNDGDMRLADGGATNQGRVEIFYRGQWGTVCDNLWDLTDASVVCRALGFENATQALGRAAFGQGSGPIMLDEVQCTGTEASLADCKSLGWLKSNCRHERDAGVVCTNETRSTHTLDLSRELSEALGQIFDSQRGCDLSISVNVQGEDALGFCGHTVILTANLEAQALWKEPGSNVTMSVDAECVPMVRDLLRYFYSRRIDITLSSVKCFHKLASAYGARQLQGYCASLFAILLPQDPSFQMPLDLYAYAVATGDALLEKLCLQFLAWNFEALTQAEAWPSVPTDLLQLLLPRSDLAVPSELALLKAVDTWSWGERASHEEVEGLVEKIRFPMMLPEELFELQFNLSLYWSHEALFQKKTLQALEFHTVPFQLLARYKGLNLTEDTYKPRIYTSPTWSAFVTDSSWSARKSQLVYQSRRGPLVKYSSDYFQAPSDYRYYPYQSFQTPQHPSFLFQDKRVSWSLVYLPTIQSCWNYGFSCSSDELPVLGLTKSGGSDRTIAYENKALMLCEGLFVADVTDFEGWKAAIPSALDTNSSKSTSSFPCPAGHFNGFRTVIRPFYLTNSSGVD
On to B1, for which the percent of rAAV6 in the pellet fraction (2,000 g, 10 minutes) was 70% and the percent of rAAV6 in the precipitate (10,000 g, 30 minutes) stood at 90%.
